Consider three substances from patent US8501426B2, “Method for identifying protease inhibitors” (priority 2006, dated 2013).

One data set concerns the target T1, HCV NS3•4A (Hepatitis C virus genotype 1a, UniProt P27958).
T1 construct: hexa-histidine (N); made in house; host or cells: Sf9 insect cells (recombinant baculovirus, pVL1392-His-NS3•4A)
In words: HCV NS3 peptide cleavage assay with full-length NS3•4A (determination of Km and Vmax). The data set is classed as biochemical, HCV sub-type strain 1a. Particulars: enzyme NS3•4A; peptide substrate varied 3 μM to 200 μM; 25 μM NS4A peptide; reverse phase HPLC. As to the method:
(§1) This assay follows the cleavage of a peptide substrate by full-length hepatitis C viral protein NS3•4A. One of three peptide substrates based on the NS5A/NS5B cleavage site for genotype 1a HCV, shown in table 3 below, is used to measure enzyme activity. All substrate stock solutions (25 mM) were prepared in DMSO containing 0.2 M DTT and stored at −20° C. A synthetic peptide cofactor (NS4A Peptide) was used to supplement NS4A. The hydrolysis reaction was performed in a 96-well microtiter plate format using 100 ηM to 125 ηM HCV NS3•4A in buffer containing 50 mM HEPES pH 7.8, 100 mM NaCl, 20% glycerol, 5 mM DTT and 25 μM NS4A peptide. The final DMSO concentration was no greater than 2% v/v. Reactions using NS5AB or NS5AB-EDANS as substrate were quenched by the addition of 10% trifluoroacetic acid (TFA) to yield a final TFA concentration of 2.5%. Reactions using FITC-NS5AB-1 as substrate were quenched by the addition of 0.4 M formic acid to yield a final concentration of 0.08 M acid.
(§2) Enzymatic activity was assessed by separation of substrate and products using reverse phase HPLC. The instrument used was an Agilent 1100 with a G1322A degasser, either a G1312A binary pump or a G1311A quaternary pump, a G1313A autosampler, a G1316A column thermostated chamber, a G1321A fluorescence detector and a G1315A diode array detector. The column thermostat was at 40° C. […] The C-terminal product peak (NH2-SMSY-COOH) was quantified using the absorbance data collected at 210 ηm. […] The C-terminal product peak (NH2-SMSYT-Asp(EDANS)-KKK-COOH) was quantified using the fluorescence data collected at 350 ηm excitation/490 ηm emission. […] The N-terminal product peak (FITC-Ahx-EDVV-(alpha)Abu-C-COOH) was quantified using the fluorescence data collected at 440 ηm excitation/520 ηm emission. Alternatively, the ratio of N-terminal product to unreacted FITC-NS5AB-1 substrate was determined using a Caliper LabChip 3000 with detection at 488 ηm excitation/530 ηm emission, using a chip buffer of 100 mM Tris pH 7.0, 10 mM EDTA, 0.01% (v/v) Brij-35, and 0.1% (v/v) CR-3. […]

In data set [1] the test system is CC[C@H](NC(=O)[C@@H](NC(=O)[C@@H](NC(=O)[C@H](CC(=O)O)NC(=O)[C@@H](N)CCC(=O)O)C(C)C)C(C)C)C(=O)N[C@@H](CS)C(=O)N[C@@H](CO)C(=O)N[C@@H](CCSC)C(=O)N[C@@H](CO)C(=O)N[C@@H](Cc1ccc(O)cc1)C(=O)O. In words: HCV NS3 protease domain peptide cleavage assay (determination of Km and Vmax). Particulars: other: enzyme NS3 Protease Domain; peptide substrate varied 3 μM to 200 μM; 25 μM KK4A cofactor; reverse phase HPLC; pH 7.8; 40.0 °C. The data set is classed as biochemical. As to the method: This assay is a modification of that described by Landro, et al. (Landro J A, Raybuck S A, Luong Y C, O'Malley E T, Harbeson S L, Morgenstern K A, Rao G and Livingston D L. Biochemistry 1997, 36, 9340-9348), and uses a peptide substrate (NS5AB), based on the NS5A/NS5B cleavage site for genotype 1a HCV. The substrate stock solution (25 mM) was prepared in DMSO containing 0.2 M DTT and stored at −20° C. A synthetic peptide cofactor (KK4A) was used as a substitute for the central core region of NS4A. The reaction was performed in a 96-well microtiter plate format using 25 ηM to 50 ηM HCV NS3 protease domain in buffer containing 50 mM HEPES pH 7.8, 100 mM NaCl, 20% glycerol, 5 mM DTT and 25 μM KK4A. The final DMSO concentration was no greater than 2% v/v. […]
The SMSY product was separated from substrate and KK4A using a microbore separation method. […] The SMSY product peak was quantified using the data collected at […].
To determine the kinetic parameters Km and Vmax, the HCV NS3 protease domain or HCV NS3•4A was reacted with peptide substrate under the assay conditions described above. […] The ratio of the product peak area (as determined by reverse phase HPLC) to the reaction time yielded a rate of enzyme catalyzed hydrolysis. […] The value of kcat was determined from Vmax using the nominal protease concentration and a fully cleaved substrate peptide as an instrument calibration standard.

For data set [2] the test system is unchanged. In words: HCV NS3 peptide cleavage assay with full-length NS3•4A (determination of Km and Vmax). The data set is classed as biochemical, HCV sub-type strain 1a. Particulars: other: enzyme NS3•4A; peptide substrate varied 3 μM to 200 μM; 25 μM NS4A peptide; reverse phase HPLC; 40.0 °C. As to the method: as §1, §2

[ ]: non-standard residue; d: D form. The star is where a group is joined. FITC = O=C1OC2(c3ccc(O)cc3Oc3cc(O)ccc32)c2ccc(NC(=S)*)cc21; Abu = CC[C@H](N)C(=O)O; Ahx = NCCCCCC(=O)O

Regarding “FITC-Ahx-EDVV-(alpha)Abu-CSMSYTKK-NH2 ({FITC}-[Ahx]EDVV[Abu]CSMSYTKK-NH2) [FITC-NS5AB-1, FITC-labelled peptide substrate based on the NS5A/NS5B cleavage site for genotype 1a HCV]”, the Michaelis constant (Km) with HCV NS3•4A worked out at 15 µM. Consider “HCV NS3 protease domain (Hepatitis C virus (isolate Con1))”, for which, in data set [1], the Michaelis constant (Km) is 25 µM and the kcat/Km is 30000 M⁻¹ s⁻¹. For “HCV NS3•4A (Hepatitis C virus (isolate H77))”, in data set [2], the Michaelis-Menten constant (Km) stood at 30 µM and the kcat/Km came out at 7900 M⁻¹ s⁻¹.
